Results published in US20070207154A1, “METHOD OF MODULATING VASCULARIZATION” (priority 2004, published 2007).

Tested on: sprouting from wild-type, TFΔCT and PAR-2-deficient aortas
Experiment: ex vivo angiogenesis assay (aortic ring sprouting in Matrigel)
Type: cell-based, mouse
Conditions: wild-type and TFΔCT aortas, EGM without serum, day 4; growth factors 20 ng/ml, VIIa 50 nM (FIG. 2c)
Method: Angiogenesis assays. The ex vivo angiogenesis assay was adopted from the rat aortic sprouting model described by Masson et al. Biol. Proced. […] Thoracic aortas from 8-11 week old wild-type, TFΔCT, PAR-2-deficient, and TFΔCT/PAR-2-deficient mice of either sex were embedded in Matrigel, and overlaid with EGM supplemented with 5% serum, growth factors, or inhibitors at the following concentrations: VEGF, bFGF, and PDGF: 20 ng/ml; hirudin: 500 nM, VIIai: […], NAPc2: […], NAP5: 1 μM, VIIa: 50 nM. In most cases, the number of aortic sprouts was determined at day 3 and 4 without knowledge of the genotype. Aortic ring RNA was isolated by Trizol (Invitrogen) extraction using standard procedures, digested with DNAaseI, followed by RT-PCR for β-actin and TF. […] Tests used 2 different virus doses, referred to as high (1.1×10^10 virus particles/ml) and low (5×10^9 particles/ml). For confocal fluorescence microscopy, aortic pieces with a minimum of surrounding Matrigel were fixed with 4% paraformaldehyde and methanol, incubated with primary and secondary antibodies (24 hours each), and mounted in anti-fade medium (Vector laboratories). Alternatively, cryosections of OCT-embedded aortas were fixed with acetone and stained as described above.

B1: PDGF-BB: platelet-derived growth factor BB, activates PDGF receptor β (protein, UniProt P01127 82-190, looked up)
Platelet-derived growth …: SLGSLTIAEPAMIAECKTRTEVFEISRRLIDRTNANFLVWPPCVEVQRCSGCCNNRNVQCRPTQVQLRPVQVRKIEIVRKKPIFKKATVTLEDHLACKCETVAAARPVT
modifications: BB homodimer
- sprouting induced by single factor replacing serum: None of these factors promoted substantial sprouting
